One block for each molecule: values may come before it.
Tests used:
[1] = target: Endogenous mouse STIM1 (mouse) (UniProt P70302); assay: cell-based or functional assay
[2] = target: T1, Endogenous STIM1 from extracts of Jurkat T lymphocytes (human, UniProt Q13586 23-685); assay: pull-down on SNAP-immobilized bait, Western blot
T1 construct: Prey protein in a cell lysate, detected by Western blot
Description: (§1) A: with full-sized original images of immunoblots (B and C).
(§2) The cells were harvested 48 h after transfection, lysed on ice in lysis buffer (25 mM Tris-HCl, pH 7.5, 150 mM NaCl, 0.5% NP-40, 5% glycerol, 2 mM DTT, 1×HALT Protease inhibitors cocktail (Pierce), 1 mM PMSF) and the extracts were cleared by centrifugation for 15 min at 16,000 g at 4° C. Each SNAP-tagged protein was covalently immobilized by incubating ~800 µL of the extract with 25 µL bed volume of SNAP Capture Resin (New England Biolabs), equilibrated with Resin Wash Buffer (RWB; 25 mM Tris-HCl, pH 7.5, 150 mM NaCl, 5% glycerol), for 16 h at 6° C. Control sample of each extract was incubated under the same conditions in the absence of the resin. Following immobilization, the resin was collected in the mini spin column (Pierce), washed 5 times on ice with 600 µL of RWB, combined with the prey protein extract, and incubated with orbital mixing at ~600-800 rpm for 6 h at 4° C.

[3] = target: T2, Overexpressed ^YFPSTIM1 from extracts of FreeStyle 293-F cells (UniProt Q13586 23-685); assay: pull-down on SNAP-immobilized bait, Western blot
T2 construct: not shown: YFP of the YFPSTIM1 construct (gift from Dr. T. Meyer)
Description: as §1, §2

Endogenous mouse STIM1 (mouse), sequence (P70302 23-685 limits assumed): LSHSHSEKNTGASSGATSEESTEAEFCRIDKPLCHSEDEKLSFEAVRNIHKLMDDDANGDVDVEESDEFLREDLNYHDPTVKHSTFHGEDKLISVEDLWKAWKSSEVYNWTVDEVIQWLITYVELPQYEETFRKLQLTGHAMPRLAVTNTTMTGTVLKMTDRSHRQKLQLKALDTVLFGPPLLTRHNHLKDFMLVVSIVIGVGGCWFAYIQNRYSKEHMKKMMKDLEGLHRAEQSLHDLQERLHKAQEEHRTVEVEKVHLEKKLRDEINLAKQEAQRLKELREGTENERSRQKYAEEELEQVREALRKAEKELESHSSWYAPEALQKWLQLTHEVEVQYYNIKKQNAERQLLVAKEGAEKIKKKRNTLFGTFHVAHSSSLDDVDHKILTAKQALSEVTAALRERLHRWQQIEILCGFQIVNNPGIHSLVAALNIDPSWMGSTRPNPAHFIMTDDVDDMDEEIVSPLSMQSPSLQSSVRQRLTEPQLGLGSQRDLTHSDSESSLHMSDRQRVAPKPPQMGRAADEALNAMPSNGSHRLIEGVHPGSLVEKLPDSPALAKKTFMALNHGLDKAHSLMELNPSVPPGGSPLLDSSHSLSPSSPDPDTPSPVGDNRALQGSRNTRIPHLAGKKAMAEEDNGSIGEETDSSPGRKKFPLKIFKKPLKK
T2 sequence (Q13586 23-685): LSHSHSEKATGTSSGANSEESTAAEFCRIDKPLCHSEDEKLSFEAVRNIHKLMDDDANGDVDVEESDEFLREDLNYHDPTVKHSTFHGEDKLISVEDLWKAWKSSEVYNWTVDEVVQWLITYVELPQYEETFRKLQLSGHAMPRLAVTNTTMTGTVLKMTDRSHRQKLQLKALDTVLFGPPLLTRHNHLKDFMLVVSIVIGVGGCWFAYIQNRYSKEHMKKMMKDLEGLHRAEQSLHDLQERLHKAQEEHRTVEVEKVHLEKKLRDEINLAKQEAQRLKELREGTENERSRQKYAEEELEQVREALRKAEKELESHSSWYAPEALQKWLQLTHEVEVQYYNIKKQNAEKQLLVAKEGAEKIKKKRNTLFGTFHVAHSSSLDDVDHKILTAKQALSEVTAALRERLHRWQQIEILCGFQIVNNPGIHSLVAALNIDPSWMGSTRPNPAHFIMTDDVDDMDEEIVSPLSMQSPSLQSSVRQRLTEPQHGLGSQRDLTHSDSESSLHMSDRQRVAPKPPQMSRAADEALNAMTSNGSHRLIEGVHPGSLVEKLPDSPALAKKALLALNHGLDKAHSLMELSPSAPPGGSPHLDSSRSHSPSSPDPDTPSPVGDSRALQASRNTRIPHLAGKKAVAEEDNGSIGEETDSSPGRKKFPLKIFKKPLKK
T1 sequence (Q13586 23-685 limits assumed): as the sequence (Q13586 23-685) above

peak of Ca^2+ release caused by ionomycin in MEFs from KO^Ex2 mice compared to WT [1]: 60%
Molecule: N-terminally truncated endogenous mouse PLA2g6(L) of KO^Ex2 mice (from UniProt P97819 179-807) (enzyme)

binding result [2]: no binding
binding result [3]: no binding
B1: C-terminally SNAP-tagged N-terminally truncated human PLA2g6(L)^179-806 (enzyme)
chain: MDVTDYKGETVFHYAVQGDNSQVLQLLGRNAVAGLNQVNNQGLTPLHLACQLGKQEMVRVLLLCNARCNIMGPNGYPIHSAMKFSQKGCAEMIISMDSSQIHSKDPRYGASPLHWAKNAEMARMLLKRGCNVNSTSSAGNTALHVAVMRNRFDCAIVLLTHGANADARGEHGNTPLHLAMSKDNVEMIKALIVFGAEVDTPNDFGETPTFLASKIGRLVTRKAILTLLRTVGAEYCFPPIHGVPAEQGSAAPHHPFSLERAQPPPISLNNLELQDLMHISRARKPAFILGSMRDEKRTHDHLLCLDGGGVKGLIIIQLLIAIEKASGVATKDLFDWVAGTSTGGILALAILHSKSMAYMRGMYFRMKDEVFRGSRPYESGPLEEFLKREFGEHTKMTDVRKPKVMLTGTLSDRQPAELHLFRNYDAPETVREPRFNQNVNLRPPAQPSDQLVWRAARSSGAAPTYFRPNGRFLDGGLLANNPTLDAMTEIHEYNQDLIRKGQANKVKKLSIVVSLGTGRSPQVPVTCVDVFRPSNPWELAKTVFGAKELGKMVVDCCTDPDGRAVDRARAWCEMVGIQYFRLNPQLGTDIMLDEVSDTVLVNALWETEVYIYEHREEFQKLIQLLLSP
modifications: covalently immobilized on SNAP Capture Resin through the SNAP tag ; Covalently immobilised on SNAP Capture Resin through the C-terminal SNAP tag, which is not in the letters
notes: Mimics the N-terminally truncated protein expected in KO^Ex2 mice; not shown: C-terminal SNAP tag and the vector linker of pSNAP-tag(m) (New England Biolabs)

From patent publication US9599605 (BOSTON MEDICAL CENTER, dated 2017)
